# B1: TNT-194 (antibody, mouse IgG2a, kappa)
# heavy: EVQLVQSGAEVKKPGASVKVSCKASGYTFTSYDINWVRQAPGQGLEWMGGIIPIFGTANYAQKFQGRVTITADESTSTAYMELRSLRSEDTAVYYCASTAVAGFGIDYWGQGTLVTVSSAKTTAPSVYPLAPVCGDTTGSSVTLGCLVKGYFPEPVTLTWNSGSLSSGVHTFPAVLQSDLYTLSSSVTVTSSTWPSQSITCNVAHPASSTKVDKKIEPRGPTIKPCPPCKCPAPNLLGGPSVFIFPPKIKDVLMISLSPIVTCVVVDVSEDDPDVQISWFVNNVEVHTAQTQTHREDYNSTLRVVSALPIQHQDWMSGKEFKCKVNNKDLPAPIERTISKPKGSVRAPQVYVLPPPEEEMTKKQVTLTCMVTDFMPEDIYVEWTNNGKTELNYKNTEPVLDSDGSYFMYSKLRVEKKNWVERNSYSCSVVHEGLHNHHTTKSFSRTPGRPQGFGPP
# light: DIQMTQSPSSLSASVGDRVTITCRASQGISNYLAWFQQKPGKAPKSLISAASSLQSGVPSRFSGSGSGTDFTLTISSLQPEDFATYYCLQHDSFPITFGGGTKLEIKRADAAPTVSIFPPSSEQLTSGGASVVCFLNNFYPKDINVKWKIDGSERQNGVLNSWTDQDSKDSTYSMSSTLTLTKDEYERHNSYTCEATHKTSTSPIVKSFNRNEC
# B2: TNT-195 (antibody, mouse IgG2a, kappa)
# heavy: EVQLVQSGAEVKKPGSSVKVSCKASGGTFSSYAISWVRQAPGQGLEWMGGIIPIFGTANYAQKFQGRVTITADKSTSTAYMELSSLRSEDTAVYYCAAGYYYDSSGYYHQPYYFDYWGQGTLVTVSSAKTTAPSVYPLAPVCGDTTGSSVTLGCLVKGYFPEPVTLTWNSGSLSSGVHTFPAVLQSDLYTLSSSVTVTSSTWPSQSITCNVAHPASSTKVDKKIEPRGPTIKPCPPCKCPAPNLLGGPSVFIFPPKIKDVLMISLSPIVTCVVVDVSEDDPDVQISWFVNNVEVHTAQTQTHREDYNSTLRVVSALPIQHQDWMSGKEFKCKVNNKDLPAPIERTISKPKGSVRAPQVYVLPPPEEEMTKKQVTLTCMVTDFMPEDIYVEWTNNGKTELNYKNTEPVLDSDGSYFMYSKLRVEKKNWVERNSYSCSVVHEGLHNHHTTKSFSRTPGRPQGFGPP
# light: DIQMTQSPSTLSASVGDRVTITCRASQGISNYLAWYQQKPGKAPKLLIYAASSLQSGVPSRFSGSGSGTDFTLTISSLQPEDFATYYCQQSYSTPLTFGGGTKVEIKRADAAPTVSIFPPSSEQLTSGGASVVCFLNNFYPKDINVKWKIDGSERQNGVLNSWTDQDSKDSTYSMSSTLTLTKDEYERHNSYTCEATHKTSTSPIVKSFNRNEC
# B3: TNT-197 (antibody, mouse IgG2a, kappa)
# heavy: EVQLVQSGGGVVQPGRSLRLSCAASGFTFSSYAMHWVRQAPGKGLEWVAVISYDGSNKYYADSVKGRFTISRDNSKNTLYLQMNSLRAEDTAVYYCARATLQLWLPLFDYWGQGTLVTVSSAKTTAPSVYPLAPVCGDTTGSSVTLGCLVKGYFPEPVTLTWNSGSLSSGVHTFPAVLQSDLYTLSSSVTVTSSTWPSQSITCNVAHPASSTKVDKKIEPRGPTIKPCPPCKCPAPNLLGGPSVFIFPPKIKDVLMISLSPIVTCVVVDVSEDDPDVQISWFVNNVEVHTAQTQTHREDYNSTLRVVSALPIQHQDWMSGKEFKCKVNNKDLPAPIERTISKPKGSVRAPQVYVLPPPEEEMTKKQVTLTCMVTDFMPEDIYVEWTNNGKTELNYKNTEPVLDSDGSYFMYSKLRVEKKNWVERNSYSCSVVHEGLHNHHTTKSFSRTPGRPQGFGPP
# light: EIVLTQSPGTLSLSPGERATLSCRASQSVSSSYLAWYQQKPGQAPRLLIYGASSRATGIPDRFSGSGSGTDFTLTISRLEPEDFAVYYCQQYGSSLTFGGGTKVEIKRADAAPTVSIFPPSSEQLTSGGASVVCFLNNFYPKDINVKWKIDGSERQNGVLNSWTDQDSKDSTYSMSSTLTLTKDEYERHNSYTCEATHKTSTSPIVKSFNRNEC
# Assays:
# [1] = target: T1, Human nectin-4 ECD-6His (TNT-175) (human, UniProt Q96NY8 32-349); assay: SPR ProteOn, mAb on protein A
# T1 construct: the entry holds the extracellular domain with the C-terminal 6His tag
# T1 sequence: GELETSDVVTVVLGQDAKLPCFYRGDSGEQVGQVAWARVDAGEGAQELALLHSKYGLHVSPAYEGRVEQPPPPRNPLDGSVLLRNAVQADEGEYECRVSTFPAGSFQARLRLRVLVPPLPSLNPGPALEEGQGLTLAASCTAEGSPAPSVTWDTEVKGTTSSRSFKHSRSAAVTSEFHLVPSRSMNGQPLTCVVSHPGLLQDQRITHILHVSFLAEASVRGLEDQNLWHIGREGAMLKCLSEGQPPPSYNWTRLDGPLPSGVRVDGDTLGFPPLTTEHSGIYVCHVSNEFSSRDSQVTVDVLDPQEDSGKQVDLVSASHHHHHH
# Experimental: Initial testing of binding of nectin-4 antibodies to nectin-4. […] Biotinylated protein A (15 μg/mL) was immobilized to the surface of an NLC chip. 30 nM of purified mAb supernatant was diluted in PBS-T and captured over the protein A surface. Serial dilutions of human nectin-4 were injected over the mAb-coated chips, and binding kinetics were determined. Chips were regenerated using 4:1 v/v of IgG elution butter/4M NaCl.
# human nectin-4 on cells = target: T2, human nectin-4 on cells (human, UniProt Q96NY8 32-510); assay: flow cytometry MFI, MNK74 (nectin-4 positive) over AGS (negative)
# T2 construct: whole, on cells; also called PVRL4
# T2 sequence (looked up): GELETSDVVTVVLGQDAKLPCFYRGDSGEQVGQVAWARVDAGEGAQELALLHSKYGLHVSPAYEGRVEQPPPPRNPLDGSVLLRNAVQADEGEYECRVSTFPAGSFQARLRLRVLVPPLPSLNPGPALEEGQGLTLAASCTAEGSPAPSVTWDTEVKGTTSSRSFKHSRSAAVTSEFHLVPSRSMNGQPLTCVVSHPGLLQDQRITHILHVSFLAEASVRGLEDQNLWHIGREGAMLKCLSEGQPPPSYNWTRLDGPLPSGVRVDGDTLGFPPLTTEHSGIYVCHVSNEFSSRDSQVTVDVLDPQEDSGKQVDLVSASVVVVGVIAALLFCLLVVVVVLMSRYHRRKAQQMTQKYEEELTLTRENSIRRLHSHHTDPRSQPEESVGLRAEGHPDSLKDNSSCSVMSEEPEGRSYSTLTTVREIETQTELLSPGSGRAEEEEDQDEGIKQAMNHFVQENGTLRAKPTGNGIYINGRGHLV
# Experimental: Cell binding of nectin-4 antibodies. Cell binding of the nectin-4 antibodies was also assessed. MNK74 (nectin-4 positive) and AGS (nectin-4 negative) cells were obtained from ATCC and cultured according to their protocols. Cells were detached with TrypLE (Gibco) and washed by centrifugation for five minutes at 400×g with FACS buffer (PBS+2% FBS). Cells were resuspended in FACS buffer, plated in 96-well format (0.25 e6/well) then pelleted by centrifugation for five minutes at 400×g. Cells were stained at 4° C. in Fixable Viability Dye eFluor 506 (eBioscience) diluted 1:4,000 in PBS. […] Cells were centrifuged, washed once in FACS buffer and stained at 4° C. with Goat F(ab′)₂ anti-Mouse IgG APC (Southern Biotech) diluted 1:400 in FACS buffer for 30 minutes or appropriate anti-human IgG. Cells were centrifuged, washed twice and fixed in 0.5% paraformaldehyde. Cells were analyzed on Attune NxT Flow Cytometer (Thermo Fisher), with subsequent data analysis by Flowjo 10.7 (BD). Dead cells were excluded by gating on the eFluor 506-negative population. […] Binding was assessed by median fluorescent intensity.
# [2] = target: T1, Human nectin-4 ECD-6His (TNT-175); assay: competition ELISA; nectin-4 ECD premixed with TNT201, captured by the coat antibody; % of signal without premix antibody
# Experimental: (§1) Competition experiments of nectin-4 antibodies. ELISA plates were coated overnight at 4° C. with goat anti-mouse IgG at […] in PBS. […] As positive control, nectin-4 was diluted at same concentrations without a premix antibody. Two wells per plate were allocated for diluent only as negative/background control. Plates were washed as previously, 50 μL/well of premix was added to each plate and incubated for one hour. Plates were washed then incubated at room temperature for one hour with Rabbit anti 6× HIS HRP diluted 1:4,000 in diluent. Plates were washed once more and incubated at room temperature for 20 minutes with 50 μL/well of ABTS substrate. […] Binding was measured as an Optical Density (O.D.) value normalized to background and calculated as a percentage of positive control at the lowest nectin-4 dilution for greatest resolution.
# [3] = target: T1, Human nectin-4 ECD-6His (TNT-175); assay: competition ELISA; nectin-4 ECD premixed with TNT202, captured by the coat antibody; % of signal without premix antibody
# Experimental: as §1
# [4] = target: T1, Human nectin-4 ECD-6His (TNT-175); assay: competition ELISA; nectin-4 ECD premixed with TNT203, captured by the coat antibody; % of signal without premix antibody
# Experimental: as §1
# [5] = target: T1, Human nectin-4 ECD-6His (TNT-175); assay: competition ELISA; nectin-4 ECD premixed with TNT204, captured by the coat antibody; % of signal without premix antibody
# Experimental: as §1
# [6] = target: T1, Human nectin-4 ECD-6His (TNT-175); assay: competition ELISA; nectin-4 ECD premixed with TNT205, captured by the coat antibody; % of signal without premix antibody
# Experimental: as §1
# [7] = target: T1, Human nectin-4 ECD-6His (TNT-175); assay: competition ELISA; nectin-4 ECD premixed with TNT206, captured by the coat antibody; % of signal without premix antibody
# Experimental: as §1
# [8] = target: T1, Human nectin-4 ECD-6His (TNT-175); assay: competition ELISA; nectin-4 ECD premixed with TNT207, captured by the coat antibody; % of signal without premix antibody
# Experimental: as §1
# [9] = target: T1, Human nectin-4 ECD-6His (TNT-175); assay: competition ELISA; nectin-4 ECD premixed with TNT208, captured by the coat antibody; % of signal without premix antibody
# Experimental: as §1
# [10] = target: T1, Human nectin-4 ECD-6His (TNT-175); assay: competition ELISA; nectin-4 ECD premixed with TNT209, captured by the coat antibody; % of signal without premix antibody
# Experimental: as §1
# [11] = target: T1, Human nectin-4 ECD-6His (TNT-175); assay: competition ELISA; nectin-4 ECD premixed with TNT210, captured by the coat antibody; % of signal without premix antibody
# Experimental: as §1
# [12] = target: T1, Human nectin-4 ECD-6His (TNT-175); assay: competition ELISA; nectin-4 ECD premixed with TNT211, captured by the coat antibody; % of signal without premix antibody
# Experimental: as §1
# [13] = target: T1, Human nectin-4 ECD-6His (TNT-175); assay: competition ELISA; nectin-4 ECD premixed with TNT212, captured by the coat antibody; % of signal without premix antibody
# Experimental: as §1
Binder,Kd [1] [nM],koff [1] [s⁻¹],kon [1] [M⁻¹ s⁻¹],Fold-change of binding to MNK74 compared to control AGS (human nectin-4 on cells) [fold],% of Positive [2] [%],% of Positive [3] [%],% of Positive [4] [%],% of Positive [5] [%],% of Positive [6] [%],% of Positive [7] [%],% of Positive [8] [%],% of Positive [9] [%],% of Positive [10] [%],% of Positive [11] [%],% of Positive [12] [%],% of Positive [13] [%]
B1,0.585,0.0023,3.92e+06,7,6.7,27.9,65.2,18.7,75.3,43.1,18.4,26.4,66.5,11,46.1,21.2
B2,1.34,0.00125,930000,6.4,6.6,24.7,51.5,15.2,63.2,35.8,18.3,23.1,56.2,16.3,46.9,20.7
B3,4.28,0.00334,780000,4.8,1.7,7.8,39.7,6.7,57.1,14.3,3.4,5.8,37.2,2.6,32.4,2.7
